Experiment: label from the status in PepcDB records

| Sequence | protein production |
| --- | --- |
| MKKLAISIGDINSIGLEILVRSHEELSKICTPFYFIHESLLNKALKLLNLKLFNAKIVAFKDDKDYEFNFIKKENSLEIYSFCLPLGFKVDENFEIQAGEIDAKSGLYGFLSFKAASYFVYEKHAHALLTLPIHKKAWEDAGLKYKGHTDALRDFFKKNAIMMLGCKELFVGLFSEHIPLAKVSKKITFKNLSIFLKDFYKETHFKKMGLLGFNPHAGDYGVIGGEEEKIMEKAIAFVNAFLHSKKDEKFFKKALKDENLQKELLLNFKGKGVYLPYPLVADTAFTKTGLKNCNRLVAMYHDLALAPLKALYFDKSINVSLNLPIIRVSVDHGTAFDKAYKNAKINTKSYFEAAKFAINLHSKA | not failed |
| MINIVIPMAGAGSRFAQAGYKKPKPFIDVLGRPMICHVLDNLNMPDARFILLTRKEHFENEQETVNWIKSKYNVEFVLIDNLTEGAACTVLHAHKLIDNNTPLLIANSDQIVDMNIAEFINDSENRNLDGSVLCFKDHDTKWSYAKIDGEGLITEIREKVVISEFATVGIYYFAKGGFFVKNAIDMIIRNERVKNEFYVAPVYNFGIQEGLKFGIFNININQMHGIGTPTDLNVYIDLVQRNKLEHHHHHH | not failed |
| MREPMTWRTSPGQTADASRHPAIPSRSPLASRALSFLGALSLLTFAATPVLAESTPTAAPPQFAVESPKAASSLLLSVAHAGKRLVAVGDRGHILLSDDDGKTWTQAKVPTRQLLTSVFFVNERKGWAVGHDAQILVSDDAGSTWARQFEDLGREAPLLDIWFADEQHGLAVGAYGALLETRDGGQHWEDVSERLDNEDQFHLNAIAAVKDNGLLVVGEAGSLFRSKDWGATWEKLEGPYEGSLFGAIGTADAGGVLVYGLRGHLFRSADFGDSWEEIPLKAASGDLEFGLSDGALLADGRIVVVGHGGSVLESTDGGRSFSVFNRPDRLSLAGVSATGDGHLILVGQGGVHLAAANGAALEQQQ | failed |
| MRRVFGAKKNTEPPPSIQDASDRINKRGDSVEDKIKKLDVELCKYKEQLKKTRPGPAQEAVKARAMRVLKQKKMYEGQRDMLYNQTFNLDQVSFAAEGLKDAQQTMTALKSANKELKGMMKTVKIQDIDNLQDEMMDLMDVSSEIQESLGRSYNIPDGLDEDDLMGELDALEADMGNETEADGMPSYLQPDTETDYDSELNLPAAPTGHNGAPHGRAQVNF | failed |
| MIDFNVDSARCTRCGQCVADCPSRIIVMATGEYPSIAPGKEFSCLRCEHCLAVCPEAAISILGFSPDGSTPLKGNLPETDQLETLIAGRRSVRRYCPENLSPELIDKLITVASCAPTGVNARKVRFTVLDDREKTAHFRDEVMERLVRLLEEEALPESKAYYARFVKVWQKHKIDLVFRDAPHLLIATAPKSLSTPRQDCVIALTTFELYAQACGIGTLWNGIATWAIEEMLPEMRQRLGIPDDHAFGYAMLFGKPAVRYARTVQHHPPEIYRVPLEHHHHHH | not failed |
| MFVGREQELASLEEFYAKDGIGMTVIYGRRRIGKSTLITEFVKDKKTVFYTATKIGKARNLELFSKQVLDLFMPGIENISFNSIEAVFDFIDKNIANDKIVLVIDELPYWAEKDDSLLSILQKYIDTIWNDKNLKIILCGSALSFMENKVLSEKSPLFGRRDSQIKLESFNYLDSAKFVPNYSNEDKAICYGITGGVAKYLSMIDPKKNIDENIIRLFFRTDGYLYDETRNLLTQEFSDISLVNNIVEQIASGVNTLNTISGKINEKEPTVLYSLEKLISVGLIEKKKCITEEKNKKKTQYVLKDYMFKFWYEFIPKATSVIEMGQGALYYQKAVKPFLHSFMGSVFEEMCRYYTLNQGITGAYGCFVTSVGTWWGVENITDKNGYIRAQSADIDIVALSDIDKKAVIGECKFKNEKIDKGIYETLVRRGTLISNKYKISKYIFFSLSGYTDWFNSLSDEDVLLLTLDSLYR | failed |
| MELTILILLLPFLSFLILGIGGKWMSHRTAGAIGTLILGAVVVLSYVTAFQYFSAPRLEDGTFATLIPYNFTWLPFTETLRFDLGILLDPISVMMLIVISTVSLMVHIYSFGYMKGETGFQRYYAFLSLFTMSMLGLVVATNIFQMYLFWELVGVSSYLLIGFYYTKPAAIAASKKAFIVTRFADLGFLIGILIYGYYGGTFGFTPDTVSLISGGASMLPLALGLMFIGGAGKSAMFPLHIWLPDAMEGPTPVSALIHAATMVVAGVYLVARMFPLFIAYAPDTLHMIAWVGAFTAFYAASVACVQSDIKRVLAFSTISQIGFMMVALGVCTSMDPHHGGLGYMASMFHLFTHAMFKALLFLGAGSIIHAVHSNEMSAMGGLRKYMPITHWTFLIACLAIAGIPPFSGFFSKDEILAACFQYSPAMGWVMTVIAAMTAFYMFRLYYGIFWGAEPPRASSHSDHSTPHGNLEAAPCRPHESPLAMTFPLIFLAVVTCLAGFIPFGHFISSNGESYSIHLDLSVAVTSVVIAIISIGIATWMYKNAKQPVANALAKRFNGLWTAAYHRFYIDDIYQFITHKIIFRCISTPIAWFDRHVVDGFFNFLAWATNTTSDEIRGLQSGQVQQYAYVFLCGALALILLLVL | failed |
| MERQDDPDAIQRLLVPTDLSASALRAFRHAVALARLYDAAIDVLHVIESVPYVALTPTDRLSLGATTLLERRGRRRLRAFLQEGEAAGVQVQSHIMRGAAADQISRFANQGDVDLMVLSAHGSDAEEGPLGPVGTRVLGRVTRPLFLVRASGPSLLGPPDDAA | failed |
| MNWRRYNGRKKLAIIVPIYNVADYLKDCLNSLLKQGVPEKELQIILVDEGSTDNSAQIAQKFVEKYPNFFELHQFENAGLGAARNRGTRLARARFITYVDSDDIVAPNSYEYMLGILERTGSQIITGNVHRFNSKKEWLNNIHARSHLGDFENTSLKEHPELIWDSTSWNKIFCLDFLKENNLYFPEGVLYEDIPMINPAFAAAKSIDIVKRMVYLWRAREGSITESSTDAKAVLDRITITEIALAGLKKYNAPNEILDILYLKSLNLGIISMLRKEKYEYISLERKQELFNSLKEYLEKFPSDTLYQAKFDKLIYFDKVLKAKTQEEFDEITSKYLKNEIGFSGYWNDAGQYVLKSDYSDLEKIVTSDDLEIHPKIEEVVFEDDSLKIQGYFYAKYSDMSAPENVKILGISALSDDGNTINEIVGEKRNFENQRITAKFGYNLNHFVKDGADFNYDYSGYELKIPLNHLEFETTNSLAFVLEVEIDGLKFEVPIKNPISGDKPRPKVGLSNAQVFSVSYKTDWSLVLSLKERSVEELYFSEDGKELRIKGNATKIALKSGKTKLPLKLVGGRVMISQAVQEKIKSFDKSVFHWWQFITYVNGKEKSIYYSGFPKNFQNDSNLEILFSNNGVATLGISYLYPLVEKLQVEENVLKLAFSLKGWMTEATKVQIVADPTLSMIWETEKMNENLYQLSLPLTLDGFSDKEWLNFHVRLTFNDGYQTNELLRWGKKEFALKNEWVSANGIGWFFRSVEQKEHGAFAIKRTADRVFQEKVGNLEYVLQEKYQNWLKEPVLNDYIMMSSFWGRNNHFNDNPEALYRYIEKNYPNMTTIIVLKDAIRSYPEYPNAKIVSYGTADYWYYLARSKYFVNNVNFTEPPRIKREEQIEIQTMHGTPLKTLGFDVLGDWKDSTYNEVLRKNGNWDYLTVPSDWVANYALKAFRVSPQIIKSGYPRNDKLFIDYKM | failed |
| GPLGSMIVFVRFNSSHGFPVEVDSDTSIFQLKEVVAKRQGVPADQLRVIFAGKELRNDWTVQNCDLDQQSIVHIVQRPWRK | not failed |
| MSMVVDSVPDSSTFVGKTIRPVAAVSIHGIVFDGERLLAVDSKNGYLLEIDPYTNNTKLLNGQYWQEFIGATGLAIADRQLWFSSGQYVYTCNLEGPDLKPEVFAWFDDPVNGVAIWESTVYITCHKRGHIWVYGRDTRKLVATFYSPGIGVENITVRGEELWVCDSAEQSVYCLDRATGEINFSLITPFESPTGLAFYDDQAVGKATLYVAYVQQEPYVRDNPNADPNHELMYRETTFIHPLYFYNDPHQCCAFSNGYLVEMRYVEELAPLDPVDLKQVEWRMALPAVTPRQRIRKIESVGLPFSRIDDVNGQKVAVFEFDQLDLDSRAVFGWRVEMEVWGIKYRLKPSDCEHLPALPEGFADRYLVDNDNLSMETDIIIRAAAEAIGRETNLLRQMFNIRNYVYDRLSYGIKPHIDTPDLALRRGVGSCGEYVGVLLALARLNGIACRTAGRYKCPPHPLQRNLPMEPDFNHVWFEFYLPGIGWLPMESNPDDTNDGGPYPTRFFMGLAWYHAETAKDVPFEQLLSQGIPVNKQVVSIGELAINHVQFTILEELDPAAHLAHLEHHHHHH | not failed |
| MKVLKPGLLTTVQDIGRTGYQKYGVLASGAMDTVSLRIANLLIGNGENEAGLEITMMGPGPSFHFSKQTLIAVTGADFTLRINDEEAPLWKPVLIKENSTVSFGPCKLGSRAYLAAAGGIEVPAVMESKSTYVRGSIGGLHGRALQKEDELNIGEMSALSQTILSRLSSQLAHTVIGSTDVVSQPWEISVIEDESRHSSAGGISICLLHSRIKNAFSEEAFRVTPQSDRMGYRLKGEPLDLTAPLEMVSAAVSFGAAQMPPAGKPYYPCLQDRQDDWPAIRGIAHIISADLPIVSQIMPGEHVQFEPVSLQEAEALAVEREQHIKELKTRMKMEWLT | not failed |
| MVEIEYRKTRIKLGDTDLVYEPAEDSFLLADAALKDAKPGMRILEIGTGSGFVSSVLLTNLKEIYLVATEINPHAARCAKMNGVKVIRTDLFKGIKSKNPENLFDLILFNPPYLPTSEEEKVPGWLNYAFDGGISGRDTLDRFLDEVRDYLKLGGEILVLISSITGLDAVKAKMEKLGFEVEVVARKKVSFEELMVVKGKLL | failed |
| MPVDKNLRDLEPGIHTDLEGRLTYGGYLRLDQLLSAQQPLSEPAHHDEMLFIIQHQTSELWLKLLAHELRAAIVHLQRDEVWQCRKVLARSKQVLRQLTEQWSVLETLTPSEYMGFRDVLGPSSGFQSLQYRYIEFLLGNKNPQMLQVFAYDPAGQARLREVLEAPSLYEEFLRYLARFGHAIPQQYQARDWTAAHVADDTLRPVFERIYENTDRYWREYSLCEDLVDVETQFQLWRFRHMRTVMRVIGFKRGTGGSSGVGFLQQALALTFFPELFDVRTSVGVDNRPPQGSADAGKRLEHHHHHH | not failed |
| MTGLINAIPATNKDEYKNVGVYIEHRGDELKRPSIEMIGIGKQLARKVNEKLICVVIGDKVDGIAKEVGEYGCDIVLAAESPELAEYRTMPYAEIIGGYIQEYKPNIFLLAATRNGRDLASRIAVKSRTGITADCTVLDIDENRTLLANRPTYGESTLAEILCRNHRPQMATARPGIFPPAEKEKDHKYEVIKKKVDVDKKLLGKQILKFIPRKSTDLTSAKIVVAGGLGLGGPDGFKMLEELANLIGGAVGSSRPPVDLGWITRDHQVGQTGQSVRPDLYIAVGISGKPQHIAGMKFSKVIVSINKDPNAEITKYSDYIITEDYRKVIPALIDAIKNSKKAQAPVQKA | failed |
| MEIYLVFVDAASNSNKFWTAKVEQNQLTVQWDRVGYKAQTKVHQFTSQAQAANKYNNLVFEKKAKGYQESQPQIESCGVVDIRRAMQLLNGLRSYVTNRNFNADYINLLNQYLKIIPTPLGMQLEPYRIFTSVADVDHQRELLSSLIPATPVAVTQAKQMPESQEKIVSLRGIHKNLWRHFLEHHHHHH | failed |
| MAYEDLSKKIIAGVGGKDNVKSVVHCTTRLRFKLKDESATHTDELKDTDGVITVVQSGGQYQVVIGNEVADVYETLIRVGGFADGGSVPDDYEDGEKMSIFDRFIDLISGIFTPMLGVLCAAGMIKGFVAMFVAFNWLSENSGTYKILYSIGDGFFYFLPIVLGLTAAKKFHVDQFVGMAIGMALCYPSIVALNSSKTVLSTLFSGSIFESQIHATFLGIPVVMMSYTSSVIPIILAVWFASKVQAFAKRIVPTVVKTFLVPFITLLIAVPITFLIIGPVASWLSDGISTVCVAIYNFSPIVAGLVMGAFWQVFVIFGVHWGFVAVMMANLASQGFDPILGLSLAASFAQTGVVLGILLQTKNQKTRGIALPAFISGIFGVTEPAIYGLTLPRKRPFILSCVAASIGGGIIGFAGTKMYMMGGMGLFSIPAAINSKTGVDGSVYGLIIAMAIAAVLGFALQMLFGYKSVDSNDKQTKVVETAATADPVMAGGVSVETTPTGAATKVEPNVTYNAATKLSSPETGQIIPLSEVKDEVFSSGAMGKGVAIEPTDGVLYAPADGEVALVFPTGHAVGLNTTDGAEILMHIGMDTVELEGKGFETLVQKGETVKAGQPLVKFDIEAIKAAGYPVTTPMVVTNSKNYHDVKLAFPAATEVNATEPLLQLN | failed |

From a protein production outcome set (Wang et al. 2014)
